Laboratory results as given in PMC9557730.

B1: N-terminal 3×-FLAG-tagged p52 (WT) [human] / p44 [human (endogenous in HEK293T)] (parent)
chain 1: MESTPSRGLNRVHLQCRNLQEFLGGLSPGVLDRLYGHPATCLAVFRELPSLAKNWVMRMLFLEQPLPQAAVALWVKKEFSKAQEESTGLLSGLRIWHTQLLPGGLQGLILNPIFRQNLRIALLGGGKAWSDDTSQLGPDKHARDVPSLDKYAEERWEVVLHFMVGSPSAAVSQDLAQLLSQAGLMKSTEPGEPPCITSAGFQFLLLDTPAQLWYFMLQYLQTAQSRGMDLVEILSFLFQLSFSTLGKDYSVEGMSDSLLNFLQHLREFGLVFQRKRKSRRYYPTRLAINLSSGVSGAGGTVHQPGFIVVETNYRLYAYTESELQIALIALFSEMLYRFPNMVVAQVTRESVQQAIASGITAQQIIHFLRTRAHPVMLKQTPVLPPTITDQIRLWELERDRLRFTEGVLYNQFLSQVDFELLLAHARELGVLVFENSAKRLMVVTPAGHSDVKRFWKRQKHSS
chain 2: MDEEPERTKRWEGGYERTWEILKEDESGSLKATIEDILFKAKRKRVFEHHGQVRLGMMRHLYVVVDGSRTMEDQDLKPNRLTCTLKLLEYFVEEYFDQNPISQIGIIVTKSKRAEKLTELSGNPRKHITSLKKAVDMTCHGEPSLYNSLSIAMQTLKHMPGHTSREVLIIFSSLTTCDPSNIYDLIKTLKAAKIRVSVIGLSAEVRVCTVLARETGGTYHVILDESHYKELLTHHVSPPPASSSSECSLIRMGFPQHTIASLSDQDAKPSFSMAHLDGNTEPGLTLGGYFCPQCRAKYCELPVECKICGLTLVSAPHLARSYHHLFPLDAFQEIPLEEYNGERFCYGCQGELKDQHVYVCAVCQNVFCVDCDVFVHDSLHCCPGCIHKIPAPSGV

Variants of: B1
Assay: FLAG-IP LC–MS (iBAQ)
Details: with p44 [human (endogenous in HEK293T)]; HEK293T nuclear extracts; n = 3, biological replicates; read off a plot
In the case of chain 1 Y316A Y318A, the response (Normalized Log2 iBAQ) is reported as 0.66.
chain 1 R337A F338A was tested, and the response (Normalized Log2 iBAQ) was 0.71.
chain 1 E310F showed a response (Normalized Log2 iBAQ) of 0.64.
For chain 1 E310A R314A, the response (Normalized Log2 iBAQ) was 0.66.
